# Measurements reported in US10800813 (Bicycle, dated 2020).
# Where two headings read alike, the source gives them in different places. Numbered stars: 1 amine (or outer) side, 2 acyl side, 3 side chain; on linkers, the order of the positions; unused ones are H or OH. Bridge positions count the residues as written; N and C are the ends. Square brackets hold non-standard residues; d marks the D form. Ends that are not written are not given here. Phe(4-guanidino) = N=C(N)Nc1ccc(C[C@H](N)C(=O)O)cc1; TBMB = c1c(C[*:1])cc(C[*:3])cc1C[*:2]; NMeR = CN[C@@H](CCCNC(=N)N)C(=O)O; hArg = N=C(N)NCCCC[C@H](N)C(=O)O; Pen = CC(C)(S)[C@H](N)C(=O)O; NMeS = CN[C@@H](CO)C(=O)O; Dpg = CCCC(N)(CCC)C(=O)O; Aze = O=C(O)[C@@H]1CCN1; Abu = CC[C@H](N)C(=O)O; Aib = CC(C)(N)C(=O)O; βAla = NCCC(=O)O; Sar = CNCC(=O)O
# B1: Ac-(06-34-18) D-Arg5 (peptide)
# peptide: Ac-CSWPA[dR]CLHQDLC-NH2
# modifications: linker 1-7-13 via TBMB
# SMILES: CC(=O)N[C@H]1CSCc2cc3cc(c2)CSC[C@H](NC(=O)[C@@H](CCCNC(=N)N)NC(=O)[C@H](C)NC(=O)[C@@H]2CCCN2C(=O)[C@H](Cc2c[nH]c4ccccc24)NC(=O)[C@H](CO)NC1=O)C(=O)N[C@@H](CC(C)C)C(=O)N[C@@H](Cc1c[nH]cn1)C(=O)N[C@@H](CCC(N)=O)C(=O)N[C@@H](CC(=O)O)C(=O)N[C@@H](CC(C)C)C(=O)N[C@H](C(N)=O)CSC3
# B2: Ac-(06-34-18) FPAR (peptide)
# peptide: Ac-CSFPARCLHQDLC-NH2
# modifications: linker 1-7-13 via TBMB
# SMILES: CC(=O)N[C@H]1CSCc2cc3cc(c2)CSC[C@H](NC(=O)[C@H](CCCNC(=N)N)NC(=O)[C@H](C)NC(=O)[C@@H]2CCCN2C(=O)[C@H](Cc2ccccc2)NC(=O)[C@H](CO)NC1=O)C(=O)N[C@@H](CC(C)C)C(=O)N[C@@H](Cc1c[nH]cn1)C(=O)N[C@@H](CCC(N)=O)C(=O)N[C@@H](CC(=O)O)C(=O)N[C@@H](CC(C)C)C(=O)N[C@H](C(N)=O)CSC3
# B3: Ac-(06-34-18) WPYR (peptide)
# peptide: Ac-CSWPYRCLHQDLC-NH2
# modifications: linker 1-7-13 via TBMB
# SMILES: CC(=O)N[C@H]1CSCc2cc3cc(c2)CSC[C@H](NC(=O)[C@H](CCCNC(=N)N)NC(=O)[C@H](Cc2ccc(O)cc2)NC(=O)[C@@H]2CCCN2C(=O)[C@H](Cc2c[nH]c4ccccc24)NC(=O)[C@H](CO)NC1=O)C(=O)N[C@@H](CC(C)C)C(=O)N[C@@H](Cc1c[nH]cn1)C(=O)N[C@@H](CCC(N)=O)C(=O)N[C@@H](CC(=O)O)C(=O)N[C@@H](CC(C)C)C(=O)N[C@H](C(N)=O)CSC3
# B4: Ac-(06-34-18) WPSR (peptide)
# peptide: Ac-CSWPSRCLHQDLC-NH2
# modifications: linker 1-7-13 via TBMB
# SMILES: CC(=O)N[C@H]1CSCc2cc3cc(c2)CSC[C@H](NC(=O)[C@H](CCCNC(=N)N)NC(=O)[C@H](CO)NC(=O)[C@@H]2CCCN2C(=O)[C@H](Cc2c[nH]c4ccccc24)NC(=O)[C@H](CO)NC1=O)C(=O)N[C@@H](CC(C)C)C(=O)N[C@@H](Cc1c[nH]cn1)C(=O)N[C@@H](CCC(N)=O)C(=O)N[C@@H](CC(=O)O)C(=O)N[C@@H](CC(C)C)C(=O)N[C@H](C(N)=O)CSC3
# B5: Ac-(06-34-18) Aze3 4GuanPhe5 (peptide)
# peptide: Ac-CSW[Aze]A[Phe(4-guanidino)]CLHQDLC-NH2
# modifications: linker 1-7-13 via TBMB
# SMILES: CC(=O)N[C@H]1CSCc2cc3cc(c2)CSC[C@H](NC(=O)[C@H](Cc2ccc(NC(=N)N)cc2)NC(=O)[C@H](C)NC(=O)[C@@H]2CCN2C(=O)[C@H](Cc2c[nH]c4ccccc24)NC(=O)[C@H](CO)NC1=O)C(=O)N[C@@H](CC(C)C)C(=O)N[C@@H](Cc1c[nH]cn1)C(=O)N[C@@H](CCC(N)=O)C(=O)N[C@@H](CC(=O)O)C(=O)N[C@@H](CC(C)C)C(=O)N[C@H](C(N)=O)CSC3
# B6: Ac-(06-34-18) Dpg1 (peptide)
# peptide: Ac-C[Dpg]WPARCLHQDLC-NH2
# modifications: linker 1-7-13 via TBMB
# SMILES: CCCC1(CCC)NC(=O)[C@@H](NC(C)=O)CSCc2cc3cc(c2)CSC[C@H](NC(=O)[C@H](CCCNC(=N)N)NC(=O)[C@H](C)NC(=O)[C@@H]2CCCN2C(=O)[C@H](Cc2c[nH]c4ccccc24)NC1=O)C(=O)N[C@@H](CC(C)C)C(=O)N[C@@H](Cc1c[nH]cn1)C(=O)N[C@@H](CCC(N)=O)C(=O)N[C@@H](CC(=O)O)C(=O)N[C@@H](CC(C)C)C(=O)N[C@H](C(N)=O)CSC3
# B7: Ac-(06-34-18) Aba4 (peptide)
# peptide: Ac-CSWP[Abu]RCLHQDLC-NH2
# modifications: linker 1-7-13 via TBMB
# SMILES: CC[C@@H]1NC(=O)[C@@H]2CCCN2C(=O)[C@H](Cc2c[nH]c3ccccc23)NC(=O)[C@H](CO)NC(=O)[C@@H](NC(C)=O)CSCc2cc3cc(c2)CSC[C@H](NC(=O)[C@H](CCCNC(=N)N)NC1=O)C(=O)N[C@@H](CC(C)C)C(=O)N[C@@H](Cc1c[nH]cn1)C(=O)N[C@@H](CCC(N)=O)C(=O)N[C@@H](CC(=O)O)C(=O)N[C@@H](CC(C)C)C(=O)N[C@H](C(N)=O)CSC3
# B8: Ac-(06-34-18) β-Ala4 (peptide)
# peptide: Ac-CSWP[βAla]RCLHQDLC-NH2
# modifications: linker 1-7-13 via TBMB
# SMILES: CC(=O)N[C@H]1CSCc2cc3cc(c2)CSC[C@H](NC(=O)[C@H](CCCNC(=N)N)NC(=O)CCNC(=O)[C@@H]2CCCN2C(=O)[C@H](Cc2c[nH]c4ccccc24)NC(=O)[C@H](CO)NC1=O)C(=O)N[C@@H](CC(C)C)C(=O)N[C@@H](Cc1c[nH]cn1)C(=O)N[C@@H](CCC(N)=O)C(=O)N[C@@H](CC(=O)O)C(=O)N[C@@H](CC(C)C)C(=O)N[C@H](C(N)=O)CSC3
# B9: Ac-(06-34-18) Aib4 (peptide)
# peptide: Ac-CSWP[Aib]RCLHQDLC-NH2
# modifications: linker 1-7-13 via TBMB
# SMILES: CC(=O)N[C@H]1CSCc2cc3cc(c2)CSC[C@H](NC(=O)[C@H](CCCNC(=N)N)NC(=O)C(C)(C)NC(=O)[C@@H]2CCCN2C(=O)[C@H](Cc2c[nH]c4ccccc24)NC(=O)[C@H](CO)NC1=O)C(=O)N[C@@H](CC(C)C)C(=O)N[C@@H](Cc1c[nH]cn1)C(=O)N[C@@H](CCC(N)=O)C(=O)N[C@@H](CC(=O)O)C(=O)N[C@@H](CC(C)C)C(=O)N[C@H](C(N)=O)CSC3
# B10: Ac-(06-34-18) Cys2ToPen2 (peptide)
# peptide: Ac-CSWPAR[Pen]LHQDLC-NH2
# modifications: linker 1-7-13 via TBMB
# SMILES: CC(=O)N[C@H]1CSCc2cc3cc(c2)CSC(C)(C)[C@H](NC(=O)[C@H](CCCNC(=N)N)NC(=O)[C@H](C)NC(=O)[C@@H]2CCCN2C(=O)[C@H](Cc2c[nH]c4ccccc24)NC(=O)[C@H](CO)NC1=O)C(=O)N[C@@H](CC(C)C)C(=O)N[C@@H](Cc1c[nH]cn1)C(=O)N[C@@H](CCC(N)=O)C(=O)N[C@@H](CC(=O)O)C(=O)N[C@@H](CC(C)C)C(=O)N[C@H](C(N)=O)CSC3
# B11: Ac-(06-34-18) Aze3 HomoArg5 (peptide)
# peptide: Ac-CSW[Aze]A[hArg]CLHQDLC-NH2
# modifications: linker 1-7-13 via TBMB
# SMILES: CC(=O)N[C@H]1CSCc2cc3cc(c2)CSC[C@H](NC(=O)[C@H](CCCCNC(=N)N)NC(=O)[C@H](C)NC(=O)[C@@H]2CCN2C(=O)[C@H](Cc2c[nH]c4ccccc24)NC(=O)[C@H](CO)NC1=O)C(=O)N[C@@H](CC(C)C)C(=O)N[C@@H](Cc1c[nH]cn1)C(=O)N[C@@H](CCC(N)=O)C(=O)N[C@@H](CC(=O)O)C(=O)N[C@@H](CC(C)C)C(=O)N[C@H](C(N)=O)CSC3
# B12: Ac-(06-34-18) Aze3 NMeArg5 (peptide)
# peptide: Ac-CSW[Aze]A[NMeR]CLHQDLC-NH2
# modifications: linker 1-7-13 via TBMB
# SMILES: CC(=O)N[C@H]1CSCc2cc3cc(c2)CSC[C@H](NC(=O)[C@H](CCCNC(=N)N)N(C)C(=O)[C@H](C)NC(=O)[C@@H]2CCN2C(=O)[C@H](Cc2c[nH]c4ccccc24)NC(=O)[C@H](CO)NC1=O)C(=O)N[C@@H](CC(C)C)C(=O)N[C@@H](Cc1c[nH]cn1)C(=O)N[C@@H](CCC(N)=O)C(=O)N[C@@H](CC(=O)O)C(=O)N[C@@H](CC(C)C)C(=O)N[C@H](C(N)=O)CSC3
# Legend:
# human plasma Kallikrein [1] = molecular target: T1, human plasma Kallikrein (human, UniProt P03952 20-638, limits assumed); experiment: enzyme inhibition assay
# T1 construct: also called hPK; human PK
# T1 sequence (P03952 20-638 limits assumed): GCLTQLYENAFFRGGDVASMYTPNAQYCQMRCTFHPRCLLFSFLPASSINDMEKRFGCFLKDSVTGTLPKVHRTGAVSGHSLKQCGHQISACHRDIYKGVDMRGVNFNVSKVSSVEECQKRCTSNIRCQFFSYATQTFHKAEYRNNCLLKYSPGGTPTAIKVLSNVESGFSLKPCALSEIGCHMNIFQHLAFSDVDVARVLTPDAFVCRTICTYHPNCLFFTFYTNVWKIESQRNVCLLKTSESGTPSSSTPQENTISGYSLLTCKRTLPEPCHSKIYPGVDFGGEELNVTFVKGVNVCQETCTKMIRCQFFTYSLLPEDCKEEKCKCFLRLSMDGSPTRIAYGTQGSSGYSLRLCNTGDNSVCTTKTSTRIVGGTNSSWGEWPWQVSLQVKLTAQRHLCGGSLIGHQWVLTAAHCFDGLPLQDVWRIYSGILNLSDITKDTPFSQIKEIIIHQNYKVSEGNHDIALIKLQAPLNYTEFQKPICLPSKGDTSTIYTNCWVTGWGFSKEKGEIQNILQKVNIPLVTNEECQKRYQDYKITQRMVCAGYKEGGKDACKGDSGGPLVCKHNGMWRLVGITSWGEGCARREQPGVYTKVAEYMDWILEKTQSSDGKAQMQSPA
# human plasma Kallikrein [2] = molecular target: T1, human plasma Kallikrein; experiment: enzyme inhibition assay; remark: listed apart in the source
# human plasma Kallikrein [3] = molecular target: T1, human plasma Kallikrein; experiment: enzyme inhibition assay; remark: listed apart in the source
# human plasma Kallikrein [4] = molecular target: T1, human plasma Kallikrein; experiment: enzyme inhibition assay; remark: listed apart in the source
# human plasma Kallikrein [5] = molecular target: T1, human plasma Kallikrein; experiment: enzyme inhibition assay; remark: listed apart in the source
# human plasma Kallikrein [6] = molecular target: T1, human plasma Kallikrein; experiment: enzyme inhibition assay; remark: listed apart in the source
# Rat plasma Kallikrein [7] = molecular target: T2, Rat plasma Kallikrein (rat, UniProt P14272 391-638, limits assumed); experiment: enzyme inhibition assay
# T2 construct: domain: catalytic domain; also called rPK; rat PK
# T2 sequence (P14272 391-638 limits assumed): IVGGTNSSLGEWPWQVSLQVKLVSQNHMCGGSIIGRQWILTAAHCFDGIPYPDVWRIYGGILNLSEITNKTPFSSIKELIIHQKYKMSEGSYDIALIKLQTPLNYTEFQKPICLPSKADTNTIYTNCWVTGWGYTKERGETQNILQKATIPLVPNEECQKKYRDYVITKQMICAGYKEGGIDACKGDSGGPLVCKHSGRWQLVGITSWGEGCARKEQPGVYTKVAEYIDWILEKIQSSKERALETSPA
# human plasma Kallikrein [8] = molecular target: T1, human plasma Kallikrein; experiment: enzyme inhibition assay; remark: listed apart in the source
# Monkey plasma Kallikrein = molecular target: T3, Monkey plasma Kallikrein (monkey (Macaca mulatta), UniProt A0A1D5Q7U7 391-638); experiment: enzyme inhibition assay
# T3 construct: domain: catalytic domain; also called mPK
# T3 sequence (A0A1D5Q7U7 entry or part of it): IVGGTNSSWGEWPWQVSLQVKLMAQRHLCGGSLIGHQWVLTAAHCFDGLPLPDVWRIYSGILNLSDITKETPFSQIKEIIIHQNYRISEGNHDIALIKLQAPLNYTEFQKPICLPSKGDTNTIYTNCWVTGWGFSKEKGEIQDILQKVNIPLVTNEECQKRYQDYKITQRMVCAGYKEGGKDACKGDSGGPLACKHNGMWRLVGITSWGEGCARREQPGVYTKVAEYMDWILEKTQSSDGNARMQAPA
# human plasma Kallikrein [9] = molecular target: T1, human plasma Kallikrein; experiment: enzyme inhibition assay; remark: listed apart in the source
# Rat plasma Kallikrein [10] = molecular target: T2, Rat plasma Kallikrein; experiment: enzyme inhibition assay; remark: listed apart in the source
# human plasma Kallikrein [11] = molecular target: T1, human plasma Kallikrein; experiment: enzyme inhibition assay; remark: listed apart in the source
# Rat plasma Kallikrein [12] = molecular target: T2, Rat plasma Kallikrein; experiment: enzyme inhibition assay; values relative, not absolute
binder,measurement,setting,value
B1,fold loss in potency against Ac-06-34-18(TMB)-NH2,human plasma Kallikrein [1],300 fold
same,Ki,human plasma Kallikrein [2],52 nM
B2,fold change in Ki against WPAR parent,human plasma Kallikrein [1],40 fold
same,Ki,human plasma Kallikrein [3],6.28 nM
B3,Ki,human plasma Kallikrein [3],0.41 nM
B4,Ki,human plasma Kallikrein [3],0.44 nM
B5,Ki,human plasma Kallikrein [4],0.17 nM
B6,Ki,human plasma Kallikrein [5],1.09 nM
"ACRWPARCTHQNYCA (linker 2-8-14 via TBMB; not fully specified (N-terminus, C-terminus), also called PK106) [06-54 (2A2)]",Ki,human plasma Kallikrein [6],0.49 nM
same,Ki,Rat plasma Kallikrein [7],7 nM
same,Ki,human plasma Kallikrein [8],5 nM
same,Ki,Monkey plasma Kallikrein,6 nM
B7,Ki,human plasma Kallikrein [5],0.07 nM
B8,Ki,human plasma Kallikrein [5],17400 nM
"AC[NMeS]WPARCLHQDLCA (linker 2-8-14 via TBMB; not fully specified (N-terminus, C-terminus)) [06-34-18 -N-MeSer1]",fold loss in potency against the parent,human plasma Kallikrein [1],10 fold
same,Ki,human plasma Kallikrein [9],0.56 nM
"ACAWPARCAHQDLCA (linker 2-8-14 via TBMB; not fully specified (N-terminus, C-terminus), also called R1A/V6A) [06-34-03 - Ala1,6]",Ki,human plasma Kallikrein [9],0.147 nM
"ACSWPARCLHQDLCA (linker 2-8-14 via TBMB; not fully specified (N-terminus, C-terminus)) [06-34-18 (01 + 05)]",IC50,Rat plasma Kallikrein [10],0.56 nM
same,IC50,human plasma Kallikrein [11],0.07 nM
same,Ki,human plasma Kallikrein [9],0.04 nM
B9,Ki,human plasma Kallikrein [5],289 nM
B10,Ki,human plasma Kallikrein [5],2160 nM
B11,Ki,human plasma Kallikrein [4],0.14 nM
B12,Ki,human plasma Kallikrein [4],1.3 nM
"AC[Sar]WPARC[Sar]HQDLCA (linker 2-8-14 via TBMB; not fully specified (N-terminus, C-terminus), also called AC N-MeGWPARCN-MeGHQDLCA) [06-34-03 - N-MeGly1,6]",Ki,human plasma Kallikrein [9],24.8 nM
Ac-CSWPA[hArg]CLHQDLC-NH2 (linker 1-7-13 via TBMB) [Ac-(06-34-18) HomoArg5],IC50,Rat plasma Kallikrein [12],64 nM
